According to the supplement of paper PMC9170038:

Tested on: K4 kissing-loop RNA reporter
Test: apparent KD of K4 kissing-loop reporter; higher = weaker reporter binding
Settings: Eterna round: R107
Description: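 RNA-MaP round R107: designed RNA switches with theophylline, tryptophan, arginine or FMN aptamers are transcribed on-chip within common flanks. They are titrated with a labelled K4 kissing-loop RNA reporter in RNA-MaP buffer (100 mM Tris pH 7.5, 80 mM KCl, 4 mM MgCl2), without ligand or with the indicated ligand. Median apparent KD per design.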

[1] = input ligand: theophylline 20 uM
[2] = input ligand: tryptophan 2.4 mM
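Also: bound reporter read as fluorescence of individual clusters on recovered sequencing chips by microscopy, with normalized cluster intensities fitted with a binding model.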

| Sequence | apparent KD of K4 kissing-loop reporter (input ligand: FMN 200 uM) | apparent KD of K4 kissing-loop reporter (input ligand: arginine 13.2 mM) | apparent KD of K4 kissing-loop reporter (input ligand: none) | apparent KD of K4 kissing-loop reporter [1] | apparent KD of K4 kissing-loop reporter [2] |
| --- | --- | --- | --- | --- | --- |
| ACCGCAUUGGGCUGAUCCCAAUGCGCUGGUCGAGGACCGGUACGGCCGCCACUCGUCCAGUGAUGUUGGACUAGGGCAACUGAAG [Veraceer] | 390 nM | 244 nM | 249 nM | 449 nM | 83.3 nM |
| ACCUACCAUUAGUGAUGUUAAUGGACGGAAGGAGCGCAGAUAUCUGCAGGUAGGUCGCCGAAGGCUAGACAUUGUCUAGCCAUUA [AK1.1 SS Arginine A] | 227 nM | 178 nM | 197 nM | 163 nM | 183 nM |
| ACCUACGAUCACAAAAGUGAUUGUAGGAUCUAGGAUAUGCUGAAAAGCAGAAGGAGAGUGAUGUUCUCAACUCACGAAAGUGAGA [FmnAX 1 #OpenEnded #K4Late] | 354 nM | 184 nM | 183 nM | 182 nM | 173 nM |
| ACGAUUUACAGAAGGAGCGUGUAUUUAACUACAAUUAUCAUAGCGAGUGAUGUUCGUUAUACACAGGUAGGUCGCUGUAUAUCGA [JR_ExcArginiB_Sub012] | 364 nM | 367 nM | 356 nM | 451 nM | 397 nM |
| ACGCAUGGGCAAGGAUAUGGUAGUGAUGUUACCUUUGCGGUGCCGGGAACGAAUGACGGUCAUGCGCCAGAAGGUGCUCAGACAA [theeternabot_exclusion_KL_FMN_B_23] | 203 nM | 180 nM | 178 nM | 250 nM | 183 nM |
| ACGGUUUCCACGGCCGCCACUUGCGCAUUAGAUCUUACCCUAGGAGUGAUGUUCCAUACAAGUACAAGGACCGGGUGGGACAUAA [theeternabot_sameState_KL_Trp_B_28] | 257 nM | 369 nM | 375 nM | 342 nM | 239 nM |
| ACGUAGUUCUAGGAUACCAGCCAAGGUGCCAGGACAAAAGUCCUGGCAGCCAGUGAUGUUGGCCCUUGGCAGCCUAGAACUACGA [Omei KL Theo B Exc B v7] | 164 nM | 145 nM | 154 nM | 122 nM | 137 nM |
| ACUGAGCAUGCGGCCGCCACUUCAGAACGUCGCCCAAAGGGCGACGCCUCCAGAGUGAUGUUCUGGAGGACCGGGCAUGUUCAGA [Omei KL Tryp B Exc A v1] | 540 nM | 300 nM | 506 nM | 450 nM | 112 nM |
| ACUGAGUUGACGAAAGUCAACAAUUGAGAAGGAGCGCACGAAAGUGCAGGUAGGUCGCUCAGUCCAGUGAUGUUGGAUCAUCAGA [#17 K4 Arginine A Same State] | 324 nM | 558 nM | 383 nM | 478 nM | 275 nM |
| AGAAGAGUGAUGUUCUUCUAUAUCUCAGAAGGAGCGACAUAAAUGUCAGGUAGGUCGCUGAGAUGAAAUCUCACACAGAUCUUGG [Arg A SS t8] | 127 nM | 149 nM | 154 nM | 182 nM | 109 nM |
| AGACGAGAUGAAGGAUAUGCGGACAAAGUGAUGUUUUGUCCGAAAGUAGGCAGUAAUAUCGAAAAUGCAGAAGGUCAAGAACAUA [theeternabot_exclusion_KL_FMN_B_36] | 135 nM | 173 nM | 143 nM | 256 nM | 145 nM |
| AGACUACCAACACUGUCAAUAGACAGUGACUAGGAUAUGCUGAUAAGCAGAAGGAGUGAUGUUCCUAAUAGAAAGGUAGUCAAAU [FmnAX 17 #SwitchBubble #StaticStem #K4Early] | 294 nM | 237 nM | 252 nM | 222 nM | 219 nM |
| AGACUACCACACUGUCAAUAGACAGUGAACUAGGAUAUGCUGAUAAGCAGAAGGAGUGAUGUUCCCAGGUAGUCAAUAAAAUAAU [FmnAX 13 C66] | 170 nM | 185 nM | 231 nM | 331 nM | 223 nM |
| AGACUACCACACUGUCAAUAGACAGUGAACUAGGAUAUGCUGAUAAGCAGAAGGAGUGAUGUUCCUAAAGGUAGUCAAAUAUAAU [FmnAX 14 #SwitchBubble #StaticStem #K4Early] | 335 nM | 380 nM | 380 nM | 567 nM | 351 nM |
| AGACUACCACACUGUCAAUAGACAGUGAGCUAGGAUAUGCUGAUAAGCAGAAGGAGUGAUGUUCCCAGGUAGUCAAUAAAAUAAU [FmnAX 13 G29+C66] | 272 nM | 192 nM | 231 nM | 302 nM | 238 nM |
| AGACUACCACACUGUCAAUAGACAGUGAGCUAGGAUAUGCUGAUAAGCAGAAGGAGUGAUGUUCCUGGGUAGUCAAUAAAAUAAU [FmnAX 13 G29+G67] | 399 nM | 349 nM | 362 nM | 441 nM | 342 nM |
| AGACUAUCGUCAAAGACGGUAGUCAAAAGUGAGGAUAUAGUGAUGUUUAGAAGGCACUAAGACUGUAUCGAAUAGAUACGGUCAA [FmnA 1 #K4BetweenAptamer #OpenEnded] | 2120 nM | 1320 nM | 2120 nM | 1250 nM | 1920 nM |
| AGACUUCACCGAAGGAGCGACGUAGCCUAGUGAUGUUAGGCAAGAGAGAAAUCUCUUAUACGUCAGGUAGGUCGCGGUGAAGUCA [Omei KL Arginine B SS C v2] | 197 nM | 118 nM | 162 nM | 160 nM | 150 nM |
| AGACUUCACCGAAGGAGCGACGUGGCCUAGUGAUGUUAGGCACGAGAGAAAUCUCGUAUACGUCAGGUAGGUCGCGGUGAAGUCA [Omei KL Arginine B SS C v6] | 204 nM | 142 nM | 165 nM | 160 nM | 180 nM |
| AGACUUCACCGAAGGAGCGACGUGGUCUAGUGAUGUUAGACACGAGAGAAAUCUCGUAUACGUCAGGUAGGUCGCGGUGAAGUCA [Omei KL Arginine B SS C v9] | 147 nM | 119 nM | 146 nM | 117 nM | 133 nM |
| AGAGAUAAGGCGGCCGCCACUAAGAUGAAACUAACGGUCAAGUGAUGUUUGCGGUUACAGUUCAGUAGGACCGGGCCGAGUAAAU [theeternabot_sameState_KL_Trp_B_47] | 512 nM | 403 nM | 407 nM | 412 nM | 357 nM |
